# Reference: the DeepSol protein solubility set
# Experiment: soluble on expression in E. coli; label from the status in PepcDB or PDB records
row,Sequence,soluble on expression in E. coli
1,MPGDSMCQAMAGNERHMLTSVKTGTYTMPVLHNRVSNEELKARMLAETEPRTTVSFYKYFTIDDPKAFRDRLYIQLEQYKVFGRIYIAAEGINAQISVPNNQFDAFKTGLFSAHPALDQIRLNIALEDDGKSFWVLRMKVRERIVADGIDDPTFNPANVGQYLKADRVNAMADDPDTVFVDMRNHYEYEVGHFQNALEVPSDTFREQLPMAVDMLDDIRDKNIVMYCTGGIRCEKASAYMLHHGFKNVYHVEGGIIEYARQAKAQGLPLKFIGKNFVFDERMGERISDDVIAHCHQCGASCDSHTNCRNEGCHLLFIQCPSCAAKYEGCCSTQCQDEMKLPLEEQRAIRSGRENGMKIFNKSKGLLQSTLHIPAPAAKDNAELEHHHHHH,not soluble
2,EQMQSEFFYTDRKKIKWSLPSQPKVDIVELELLVARFIGEEKATKCFEKFHSMNQTKDNKKFNEAILFHAENTLARVLGSASAKLVTSLAISSRGMAFDQVAKLVEDNSTQQLEFSRTVLQSAIENVSEGISVIDSELKLVAWNKQYLDIFSYPEAFIYIGCPISQLIHFNLSQQGYFAKDIDLRVK,not soluble
3,MDTELMKLDVHVTAWSRTPSSSGFLNSVMISRDRDFEEFIINDRDGSVTSLGSYQNPSRGPDPLIFLDFRNFEPNYVYQLLLSQFHDHVLSEHIADQIGYTFGTCNSPTSTTDLDQESEEEE,soluble
4,MNDSAPRRVRVRAPELIGKGGWLNTGDKQYTLADLRGRIVVLDFWTFCCINCLHVLDELRELEEKHRDTVVIIGVHSPKFVHEAEHQAVVDAVERYGVEHPVLDDPELATWKQYAVRAWPTLVVIDPEGYVVAQHAGEGHAHAIAALVAELEAEHEAKGTLRRGDGPYVAPEPEPTVLRFPGKALLLPSGNFLVSDTTRHQLVELAADGESVVRRIGSGIRGFADGPADAASFSEPQGMTLLDEDVVVVADTVNHALRRLDLATGEVTTLAGTGRQWWQGSPASGPAREVDLSSPWDVAVFGGRVWIAMAGGAPAVDVRPGGGDGRGRGGHDERGAGRRTGLEHHHHHH,soluble
5,MSSAPNDDCEIDKGTPSTASLFTTLMLSQPSSSTAVLQCTYCGSSCTSSQLQTCLFCGTVAYCSKEHQQLDWLTHKMICKSLQTSGMVPSNLMPQAAPAVMAPIPPTVSFDDPALTTSLLLSLQNNPILNQTISNFPPTFSITSKTEPEPSIPIQIPQRISSTSTVPFSSEGSAFKPYRNTHVFNSISSESMSSMCTSHEASLEHMSSASLAMFPTSSTAQSDISRLAQVLSLAGDSPASLALVTTSVPSTASTATIPPPATTTSSATSSGKSETITVGKEKIIQTDDPDIQIIETEGGSKPTVSRTRKRPTPSNSADPKINYKDHNKNVVYSTTLQEHQKHLQNRGLALSIHQAMVLRLRYIAEHVIRSLNEFGWAVVDNFLGSDHYKFTAKEIERLYERGLFSPGQLMEAKHKDEFHIKDIRSDHIYWYDGYDGRAKDAATVRLLISMIDSVIQHFKKRIDHDIGGRSRAMLAIYPGNGTRYVKHVDNPVKDGRCITTIYYCNENWDMATDGGTLRLYPETSMTPMDIDPRADRLVFFWSDRRNPHEVMPVFRHRFAITIWYMDKSERDKALAKGKESDAACASKKENDPTSSSLNSLIGSLLRPRKNPSTHDLSKLDLRLFPSTSSDPALVSAADEDRVDISADFQSTSSLAHPESTDSGVSLSTFNVAHNHMERTTSLQSISDHFRSERSHERRSSTSSDQDLDEGLPPPPSTNPEYYI,not soluble
6,MGSDKIHHHHHHACDDDEATDPYDINYVYIYKPSETNATLEYKGDGTFLKEIATEHILSPVRCTKPAPQDLTIQLAIDRSLVDAYNSEYGTSYVALQNAELENATLYIKQGEYISVDTLKVHYTNMEEFKNGSENYILPIAITSINGTGVSASESNSKIFLTFESTYKPNHVTLTSSKEYLLEYQYSQGFTNLSSEWKLDGILKSAWAADGDTKVTLAINPALVGTYNALHGTDYSLLTSASLKQSTIMIKQGKTTPEESVALSFSDDMASVQLGTNYVIPVTITNVDGVGADIGENKVIYIVYKTALVGFLSCVDKPVGSVINDHSGWSFTLNGQSSDLYDYVPDGSILDIDLGKQENIKTIALHFYEWFYSSESASIAISNDGEKYEDLGVASGFANKTSYILLLVAKQAQYIRVTFHGALYYSPYINTVGIYTETE,not soluble
7,VRSTPPASAGRSTPPALAGHSTPPALAGHSTLCGRPVAGDRALIMAIVNRTPDSFYDKGATFSDAAARDAVHRAVADGADVIDVGGVKAGPGERVDVDTEITRLVPFIEWLRGAYPDQLISVDTWRAQVAKAACAAGADLINDTWGGVDPAMPEVAAEFGAGLVCAHTGGALPRTRPFRVSYGTTTRGVVDAVISQVTAAAERAVAAGVAREKVLIDPAHDFGKNTFHGLLLLRHVADLVMTGWPVLMALSNKDVVGETLGVDLTERLEGTLAATALAAAAGARMFRVHEVAATRRVLEMVASIQGVRPPTRTVRGLA,soluble
8,MLKYNIRGENIEVTEPIRDYVEKKIDKLERYFTETPDANVHVNLKVYSDKNAKVEVTIPLPNLVLRAEETSGDLYASIDLIVDKLERQIRKHKTKVNRKFRDKGAERDYFAYSDVNGSTPPEENEGDFDLEIVRTKQFSLKPMDSEEAVLQMNLLGHSFYVYTDAETNGTNIVYSRKDGKYGLIETNLEHHHHHH,soluble
9,MADLLNVLKDKLSGKNVKIVLPEGEDERVLTAATQLQATDYVTPIVLGDETKVQSLAQKLDLDISNIELINPATSELKAELVQSFVERRKGKATEEQAQELLNNVNYFGTMLVYAGKADGLVSGAAHSTGDTVRPALQIIKTKPGVSRTSGIFFMIKGDEQYIFGDCAINPELDSQGLAEIAVESAKSALSFGMDPKVAMLSFSTKGSAKSDDVTKVQEAVKLAQQKAEEEKLEAIIDGEFQFDAAIVPGVAEKKAPGAKLQGDANVFVFPSLEAGNIGYKIAQRLGGYDAVGPVLQGLNSPVNDLSRGCSIEDVYNLSIITAAQALQ,not soluble
10,HGPEGTVEIETVKLARSVFSKLHEICCSWVKDFPLRRRPQLYYETSIHAIKNMRRKMEDKHVCIPDFNMLFNLEDQEEQAYFAVFDGHGGVDAAIYASIHLHVNLVRQEMFPHDPAEALCRAFRVTDERFVQKAARESLRCGTTGVVTFIRGNMLHVAWVGDSQVMLVRKGQAVELMKPHKPDREDEKQRIEALGGCVVWFGAWRVNGSLSVSRAIGDAEHKPYICGDADSASTVLDGTEDYLILACDGFYDTVNPDEAVKVVSDHLKENNGDSSMVAHKLVASARDAGSSDNITVIVVFLRDMNKVRASSPSPL,soluble
11,MSLTVSKINEKATPVKKWTVYLVQHTHTDIGYTKPQTEILSEHLRYIDYAIEYCEQTKDYTNDAKFRWTCESAWAVDEYLKNRPEEQVNKLKKYIAEGQIEVASMYFNMSEIVDENSFKTFLQPVKEFRKHGIPSALAMQNDVNGIAWCLADYLPDLGIKYLWMGEHHYKSQVPFNMPTVFQWESPSGKPILTYRADHYNTGNFWGIEQGDIQKTEPKLLHYLSELERKHYPFDAVGVQYSGYFTDNSPPSIIECKLIREWNEKYAYPKLRSATASEFMDYVTERYGDKIPAYRAAYPDWWTDGFGSAARETAASRKTHSDMTAVEGLLSMAVLKDKCLPQATHQQIEHIHESLLFYDEHTFGASESVSDPLCENSQVQWGEKSAYAWEAVKRTQMLYETSVGLLQGDLRRGKNPTLTIFNTLNWKRSEMLTVYIDFEVIPRNQFFEITDFQGHSLKVQPIRYRREGCYYAIFAEDIPPMGYKTFEIVFKQPSTDTGTITINNASIENHFYKLQLNPDKGTIQSLYDKELNCELVDSSSPWELGAFIYEKLGNRDQLAQYRLDDYNRTGLSECRIIDSSNGPIYQRILLQGKSPGTDEAFGVNLEIKLYHDTKRIELEYAIKRLPETDPSGIYVAFPFQLPEGKLAFDVQGGTVISGKNQLEGTSTDWNTVQNFVSVQNNQAQIIIGSSLIPLYQLGDINLGKFQYQKQYERPHVYSWVMNNYWNTNFKASQEGEFRWSYHLTSSVDPSNNLATKFGWSSRIPLYARVMPTGTENHKPTEYSAFHFEKDNFLMTSCTPSKEEGYILLNIREIDGKRTNLRILNEDGQTIPFTIVNAIEEKLENETSEHIFEGYQNKFIKIKREGHHHHHH,soluble
12,MSLKILDISTEVKEIALKTPFITALRRVDAVEFVRVKVVCDDGSVAYGEAPATRAVTGEDIYSILSDIAFIQEELIGLTPKDAIVSLHLAEMGSSAKAALDMALFYLLPQTKEKQNLTLQTDITISLKDSDEMISDATQAIASGMNILKVKFGGDIKHAIEVTNRLSELDAKLIIDANQAWTQDDTMEYLEATLNVKLELIEQPVKADELHELRCITNYSHVPILADESVFTLEDAKAIIEYACADMINIKLMKCGGVTKAIEILEFARKNDIKCMLGSMLEGPISINAALNLAMEYSDVIAYIDLDSPLLYKEPSNELEFDFNGCEITRKEGHHHHHH,soluble
13,MMNWKQLISAKRFGMEEFHEERQENRSEFQRDYDRLIFSAPFRRLQNKTQVFPLPGSIFVHNRLTHSLEVSCVGRSLGNDVAKAILERQPELESSFLPEIGSIVSAACLAHDLGNPPFGHSGERAISTFFSEGKGQRLQEKQPDGEQLSPMEWEDLTHFEGNANAFRILTHQFEGRRRGGFVLTYSTLASIVKYPFSSSLAGKKSKFGFFVSEEESYRKIATELGLIQLSEQPLKYARHPLVYLVEAADDICYQMMDIEDAHKLKIITTDETKELLMAFFSEDRQSRLRSTFQIVNDINEQIAYLRSSVIGLLVRECTRVFLEHEQEILAGTFEGALIKHIAEGPAAAYNHCAEISLKRIYRSQDVLDIELAGFRIISTLLELMVDAVTLPGKEKAYSELLTNRVSDQYNIKSPVLYERIQAVLDYISGMTDVFALDLYRKINGNSLPAV,not soluble
14,MPGLPEVAPGDDLAKLIAAVEPGLVDGDVLLVTSKIVSKAEGRIVRADDREAAIDAETVRVVARRGALRIVENRQGLVMAAAGVDASNTPSGTVLLLPEDPDASARAIRDGLRDTLGVDVGVVVTDTFGRPWRTGLTDVAIGAAGVRVLDDLRGGTDAYGNPLSATVVATADELAAAGDLVKGKAAGLPVAVVRGLPHVIAGDDEAGARAMVRGGRDDMFRLGTSEAVREAVTQRRTVRAFTDEPVDPGAVRRAVAAAVTAPAPHHTTPWRFVLLESAESRTRLLDAMRDAWIADLRGDRKTEESIAKRVRRGDVLRNAPYLVVPCMVMDGSHSYGDARRDAAEREMFVVATGAGVQNFLVALAGERLGSAWVSSTMFCRDVVRRALGLPESWEPMGAVAVGHAAEEPRDRPARDAGAFIEVRLEHHHHHH,soluble
15,MSLTQTPNTGSPHRVVIVGGGAGGLELAAKLGRAHGRERVTLVDSRPFHIWKPSLHEAAAGTLDIHQEGLSYLMLANMCNFTFAQGELQGIERERRQIQVGPVADPSGQQVLPPRELSYDTLVLAMGSTSNFFNTPGAAEHAVTLDTTENAEQFRLTMLKAMVQVDLRKVHDPSARLDLVIVGGGATGVELAVELIEASHVVSAYGLPNFRADRDLVITLVEGAPRILSALPEKISRAAHARLTELGVRVETDCRVAEVGADHVVTADGRRFEATMCLWAAGIEGPPLFRQLGLPLNRLGQLEVNERLESPDPHILALGDCCAAPWKDGRTVPARAQAAHQQADYLARKLTARLRNAAEPTEAYAYHDHGSLVSLGQGSGVGSLMGKLAGRGLFVSGTLARLMYMSLHLMHHRAVLGISRTATLALARLLMRRTRPRVKLHEGHHHHHH,soluble
16,MPNYPFPILWLPPKPLGHLLRNMDFRNLIIFSLTSKPAKWLTELLNMDAPMISVHVDHQINIIVSSVKSVTYHASNGSLRESRGKIDRQINFPGSLKQFVEHLLHIFKEHKIDDLEIMCNSVYQYKPDIQALKGIKMRTLKLRYQESILKMFGTSADRIEFSTIKSAELENSKDILIQNFDYLKFDFEGSLTADNLIGINGKVVNIWAADIEMKDVNIFLKHWLKGSNPRLEKLILKTYRLDTDGNSVEDSVADLFRDLDCESIAESQFEILRDDESIAKISILEHGYWYNKIHCYFSLNEAMNLYTTYFWDIVHLQEKILH,not soluble
